Test results taken from patent US20070065444A1 (Amgen, published 2007).
Read-outs that look alike come from different tables or passages of the source.

T1: cynomologus ALK-1/Fc fusion protein (cynomolgus monkey, UniProt Q5RAN0 22-118 (Pongo abelii entry))
T1 construct: also called cALK-1/Fc; not shown: Fc part and any linker not described
T1 chain: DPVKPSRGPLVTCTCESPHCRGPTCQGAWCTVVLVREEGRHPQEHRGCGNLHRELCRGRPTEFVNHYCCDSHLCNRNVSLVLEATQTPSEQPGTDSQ

T2: Cynomolgus monkey ALK-1 (full-length, cell surface) (cynomolgus monkey, UniProt P37023 22-503 (human entry))
T2 construct: also called Cyno ALK-1
T2 chain: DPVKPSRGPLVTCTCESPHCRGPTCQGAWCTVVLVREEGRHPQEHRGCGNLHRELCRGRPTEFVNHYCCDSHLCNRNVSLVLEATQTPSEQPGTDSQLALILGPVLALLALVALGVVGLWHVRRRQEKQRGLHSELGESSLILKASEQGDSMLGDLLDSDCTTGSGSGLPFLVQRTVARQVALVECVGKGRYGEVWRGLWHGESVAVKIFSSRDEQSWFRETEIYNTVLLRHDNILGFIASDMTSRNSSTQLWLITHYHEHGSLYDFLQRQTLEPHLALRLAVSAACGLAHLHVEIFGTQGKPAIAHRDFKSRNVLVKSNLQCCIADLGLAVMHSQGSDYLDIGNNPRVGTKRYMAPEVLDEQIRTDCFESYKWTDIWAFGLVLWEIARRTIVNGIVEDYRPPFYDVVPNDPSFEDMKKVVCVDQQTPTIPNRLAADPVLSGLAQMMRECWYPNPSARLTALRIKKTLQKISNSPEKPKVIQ


Key:
[1] = biological target: T3, recombinant human ALK-1/Fc fusion protein (human, UniProt P37023 22-118); assay: SPR (BIAcore 3000), hALK-1/Fc immobilized, antibody as analyte
T3 construct: range 22-118; Disulfide-linked homodimer; also called hALK-1/Fc; recombinant human ALK-1/Fc chimera; not shown: Fc region of human IgG

[2] = biological target: T1, cynomologus ALK-1/Fc fusion protein; assay: SPR (BIAcore 3000), cALK-1/Fc immobilized, antibody as analyte
[3] = biological target: T4, human ALK-1 (full-length, cell surface) (human, UniProt P37023 22-503); assay: cell-based or functional assay
[4] = biological target: T4, human ALK-1 (full-length, cell surface); assay: FACS on 293 cells overexpressing human ALK-1
[5] = biological target: T2, Cynomolgus monkey ALK-1 (full-length, …); assay: FACS on 293 cells overexpressing Cyno ALK-1
[6] = biological target: T5, monomeric ALK-ECD (human, UniProt P37023 22-118); assay: SPR (BIAcore 3000), antibody immobilized, monomeric ALK-ECD as analyte (Example 8, different ECD preparation)
T5 construct: also called ALK-1 ECD His-Tag protein; Human ALK-1 ECD His-Tag Protein

[7] = biological target: T2, Cynomolgus monkey ALK-1 (full-length, …); assay: FACS, 293 stable cells overexpressing full-length Cyno ALK-1, anti-human kappa R-PE secondary, geometric mean against mAb concentration
[8] = biological target: T4, human ALK-1 (full-length, cell surface); assay: FACS, 293 stable cells overexpressing full-length human ALK-1, anti-human kappa R-PE secondary, geometric mean against mAb concentration
[9] = biological target: T2, Cynomolgus monkey ALK-1 (full-length, …); assay: FACS on 293 cells overexpressing Cyno ALK-1
[10] = biological target: T3, recombinant human ALK-1/Fc fusion …; assay: SPR (BIAcore 3000) cross-competition on immobilized human ALK-1/Fc chimera

ID1 Taqman IC50 [3]	pSmad1 Western IC50 nM [3]	Kd [4]	Kd [5]	Binder	other results
				4.62.1 (antibody, V domains shown, Human IgG2 kappa antibody from a hybridoma) VH: QVQLQESGPGLVKPSQTLSLTCTVSGGSISSGDYYWNWIRQHPGKGLEWIGYIYYSGSTYYNPSLKSRVTISVDTSKNQFSLKLSSVTAADTAVYYCARESTDGMDVWGQGTTVTVSS VL: not shown	Avidity [1]: 9.6 pM; Avidity [2]: 19 pM
100 nM	82 nM	7.6 nM	3.1 nM	4.24.1 (antibody, human IgG2, V domains shown, Human IgG2 kappa antibody from a hybridoma) VH: QVQLQESGPGLVKPSQTLSLTCTVSGGSISSNDYYWNWIRQHPGKGLEWIGYIYYSGSTYYNPSLKSRVTISVDTSKNQFSLKLSSVTAADTAVYYCARESTDGMDVWGQGTTVTVSS VL: ENVLTQSPGTLSLSPGERATLSCRASQSVSSNYLAWYQQKPGQAPRLLIYGASSGATGIPDRFSGSGSGTDFTLTISRLEPEDFAVYYCQHYGSSPITFGQGTRLEIK	
21 nM	35 nM	6.4 nM	3.8 nM	4.72.1 (antibody, human IgG2, V domains shown, Human IgG2 kappa antibody from a hybridoma) VH: QVQLQESGPGLVKPSQTLSLTCTVSGGSISSGEYYWSWIRQHPGKGLEWIGYIFYSGSTYYNPSLKSRVTISLDTSKNQFSLKLSSVTAADTAVYYCARESTDGMDVWGQGTTVTVSS VL: EIVLTQSPGTLSLSPGERATLSCRASQSVSSSYLAWYQRKPGQAPRLLIYGVSSRATGIPDRFSGSGSGTDFTLTISRLEPEDFAVYYCQQYGSSMITFGQGTRLEIK	Kd [6]: 0.8 nM; koff [6]: 2.5e-05 s⁻¹; kon [6]: 32000 M⁻¹ s⁻¹
75 nM	15 nM	5.6 nM	3 nM	1.162.1 (antibody, human IgG2, V domains shown, Human IgG2 kappa antibody from a hybridoma) VH: QVQLQESGPGLVKPSQTLSLICTVSGGSISSGEYYWSWIRQHPGKGLEWIGYIYYSGSTYYNPSLKSRLTISVDTSKNQFSLKLSSVTAADTAVYYCAREGIGAFDIWGQGTMVTVSS VL: EIVLTQSPGTLSLSPGERATLSCRASQSVSSSYLAWYQQKPGQAPRLLIYGASSRATGIPDRFSGSGSGTDFTLTIIRLDPEDFAVYYCQRYGSSPITFGQGTRLEIK	Avidity [1]: 18 pM; koff [1]: 1.1e-05 s⁻¹; Avidity [2]: 62 pM
100 nM	87 nM			1.13.1 (antibody, human IgG2, V domains shown) VH: QVHLQESGPGLVKPSETLSLTCTVSGGSVSSGDYYWNWIRQPPGKGLEWIGYIYYSGSTNYNPSLKSRITISIDTSKNQFSLKLNSVTAADTALYYCARESVAAFDYWGQGTLVTVSS VL: EIVLTQSPGTLSLSPGERATLSCRASQSISSRYLAWYQQEPGQAPRLLIYGASSRATGIPDRFSGSGSGTDFTLTISRLEPEDFAVYYCQHYGSSPITFGQGTRLEIK	
14 nM	15 nM	14 nM		4.58.1 (antibody, human IgG2, V domains shown, Human IgG2 kappa antibody from a hybridoma) VH: QVQLQESGPGLVKPSQTLSLTCTVSGGSISSGDYYWNWIRQHPGKGLEWIGYIYYSGSTYYNPSLKSRVTISVATSKNQFSLKLSSVTAADTAVYYCAREATEGFDYWGQGTLVTVSS VL: EIVLTQSPGTLSLSPGERATLSCRASQSVSTTYLAWYQQKPGQAPRLLIYGASSRATGIPDRFSGSGSGTDFTLTISRLEPEDFALYYCQHYGTSSITFGQGTRLEIK	
87 nM	52 nM	9.3 nM		4.38.1 (antibody, human IgG2, V domains shown, Human IgG2 kappa antibody from a hybridoma) VH: QVQLQESGPGLVKPSQTLSLTCTVSGGSISSGDYYWSWIRQHPGKGLEWIGYIYYSGSTYYNPSLKSRVTISIDTSKNQFSLKLSSVTAADTAVYYCARERDYGGGFDYWGQGTLVTVSS VL: not shown	Avidity [1]: 100 pM; Avidity [2]: 150 pM
				1.12.1(rWT) (antibody, human IgG2, kappa, mAb 1.12.1 expressed as a recombinant mAb; also called recombinant wild-type mAb 1.12.1) heavy: QVQLQESGPGLVKPSQTLSLTCTVSGGSMSSGEYYWNWIRQHPGKGLEWIGYIYYSGSTYYNPSLKSRVTISVDTSKNQFSLKLSSVTAADTAVYYCARESVAGFDYWGQGTLVTVSSASTKGPSVFPLAPCSRSTSESTAALGCLVKDYFPEPVTVSWNSGALTSGVHTFPAVLQSSGLYSLSSVVTVPSSNFGTQTYTCNVDHKPSNTKVDKTVERKCCVECPPCPAPPVAGPSVFLFPPKPKDTLMISRTPEVTCVVVDVSHEDPEVQFNWYVDGVEVHNAKTKPREEQFNSTFRVVSVLTVVHQDWLNGKEYKCKVSNKGLPAPIEKTISKTKGQPREPQVYTLPPSREEMTKNQVSLTCLVKGFYPSDIAVEWESNGQPENNYKTTPPMLDSDGSFFLYSKLTVDKSRWQQGNVFSCSVMHEALHNHYTQKSLSLSPGK light: not shown	EC50 (read off the curve) [7]: ~5 nM; EC50 (read off the curve) [8]: ~5 nM
			2 nM	1.12.1 (antibody, human IgG2, kappa, Hybridoma-derived human IgG2 kappa antibody; also called mAb 1.12.1 isolated from the hybridoma; hybridoma LN 15916, ATCC PTA-6808) heavy: QVQLQESGPGLVKPSQTLSLTCTVSGGSMSSGEYYWNWIRQHPGKGLEWIGYIYYSGSTYYNPSLKSRVTISVDTSKNQFSLKLSSVTAADTAVYYCARESVAGFDYWGQGTLVTVSSASTKGPSVFPLAPCSRSTSESTAALGCLVKDYFPEPVTVSWNSGALTSGVHTFPAVLQSSGLYSLSSVVTVPSSNFGTQTYTCNVDHKPSNTKVDKTVERKCCVECPPCPAPPVAGPSVFLFPPKPKDTLMISRTPEVTCVVVDVSHEDPEVQFNWYVDGVEVHNAKTKPREEQFNSTFRVVSVLTVVHQDWLNGKEYKCKVSNKGLPAPIEKTISKTKGQPREPQVYTLPPSREEMTKNQVSLTCLVKGFYPSDIAVEWESNGQPENNYKTTPPMLDSDGSFFLYSKLTVDKSRWQQGNVFSCSVMHEALHNHYTQKSLSLSPGK light: not shown	Kd [9]: 2 nM
				1.12.1(D19A) (antibody, human IgG2, kappa, Recombinant 1.12.1 with the single light-chain mutation D19A) heavy: QVQLQESGPGLVKPSQTLSLTCTVSGGSMSSGEYYWNWIRQHPGKGLEWIGYIYYSGSTYYNPSLKSRVTISVDTSKNQFSLKLSSVTAADTAVYYCARESVAGFDYWGQGTLVTVSSASTKGPSVFPLAPCSRSTSESTAALGCLVKDYFPEPVTVSWNSGALTSGVHTFPAVLQSSGLYSLSSVVTVPSSNFGTQTYTCNVDHKPSNTKVDKTVERKCCVECPPCPAPPVAGPSVFLFPPKPKDTLMISRTPEVTCVVVDVSHEDPEVQFNWYVDGVEVHNAKTKPREEQFNSTFRVVSVLTVVHQDWLNGKEYKCKVSNKGLPAPIEKTISKTKGQPREPQVYTLPPSREEMTKNQVSLTCLVKGFYPSDIAVEWESNGQPENNYKTTPPMLDSDGSFFLYSKLTVDKSRWQQGNVFSCSVMHEALHNHYTQKSLSLSPGK light: not shown	EC50 (read off the curve) [7]: ~3 nM; Kd [9]: 3.8 nM; EC50 (read off the curve) [8]: ~5 nM
				1.11.1 (antibody, human IgG2, V domains shown, Human IgG2 kappa antibody from a hybridoma) VH: QVQLVESGGGVVQPGRSLRLSCAASGFTFSSHGMYWVRQAPGKGLEWVAAIWYDGSNKYYADSVKGRFTISRDNSKNTLYLQMNSLRAEDTAVYYCARDQEQWPDVFDIWGQGTMVTVSS VL: DIQMTQSPSSLSASVGDRVTITCRASQGIRNYLAWFQQKPGKAPKSLIYGASSLQSGVPSKFSGSGSGTDFTLTISSLQPEDFATYYCQQYNSYPLTFGGGTKVEIK	binding result [10]: binds
58 nM	17 nM			1.183.1 (antibody, human IgG2, V domains shown) VH: QVQLQESGPGLVKPSETLSLTCTVSGGSISSYYWSWIRQPPGKGLEWIGYIYYSGSTNYNPSLKSRVTISVDTSKNQFSLKLSSVTAADTAVYYCAREDDSSGCPYFDYWGQGTLVTASS VL: EIVMTQSPATLSVSPGERATLSCRASQSVSSNLAWYQQKPGQAPRVLIYGASTRATGIPVRFSGSGSGTEFTLTISSLQSEDFAVYYCQQYNNWPFTFGPGTKVDIK	
